Experimental data from US6428965 (Johns Hopkins, dated 2002).

Tests used:
[1] = target: T1, rat neuropilin (neuropilin-1), full length (rat, UniProt Q9QWJ9 22-922); experiment: AP staining of transfected COS cells
T1 construct: Expressed transiently on COS cells from pMT21-neuropilin
Protocol: FIGS. 1A to 1F. Sema-AP binds to neuropilin. COS cells were transfected with an expression vector encoding neuropilin (FIGS. 1A–1C) or the empty vector (FIG. 1D). After two days, cells were incubated with Sema-AP (FIG. 1A) or SEAP (FIG. 1B) and then processed for alkaline phosphatase activity, or cells were fixed and subjected to immunocytochemistry using anti-neuropilin IgG (FIGS. 1C and 1D). No neuropilin immunoreactivity was detected when COS cells expressing neuropilin were incubated with pre-immune IgG. (FIG. 1E) Anti-neuropilin immunoblot analysis of whole cell extracts prepared from COS cells that were transfected with the empty expression vector (lane 1) or an expression vector encoding neuropilin (lane 2). (FIG. 1F) Sema-AP binds directly to the extracellular domain of neuropilin. Either Sema-AP or SEAP was incubated with soluble myc-tagged neuropilin extracellular domain (myc-neuropilin^ex). Then, myc-neuropilin^ex was immunoprecipitated with an antibody directed against the myc epitope, and alkaline phosphatase activity in the immune complex was determined as described in the Examples. AP activity was measured as described in the Examples and is reported as OD$405$/second. Shown are the means +/− SEM of three independent experiments. Scale bar=25 μm.

[2] = target: T2, myc-tagged soluble neuropilin extracellular domain (myc-neuropilin^ex) (rat, UniProt Q9QWJ9 22-855); experiment: co-immunoprecipitation with anti-myc antibody, AP activity
T2 construct: Expressed in COS cells and used as culture medium
T2 sequence: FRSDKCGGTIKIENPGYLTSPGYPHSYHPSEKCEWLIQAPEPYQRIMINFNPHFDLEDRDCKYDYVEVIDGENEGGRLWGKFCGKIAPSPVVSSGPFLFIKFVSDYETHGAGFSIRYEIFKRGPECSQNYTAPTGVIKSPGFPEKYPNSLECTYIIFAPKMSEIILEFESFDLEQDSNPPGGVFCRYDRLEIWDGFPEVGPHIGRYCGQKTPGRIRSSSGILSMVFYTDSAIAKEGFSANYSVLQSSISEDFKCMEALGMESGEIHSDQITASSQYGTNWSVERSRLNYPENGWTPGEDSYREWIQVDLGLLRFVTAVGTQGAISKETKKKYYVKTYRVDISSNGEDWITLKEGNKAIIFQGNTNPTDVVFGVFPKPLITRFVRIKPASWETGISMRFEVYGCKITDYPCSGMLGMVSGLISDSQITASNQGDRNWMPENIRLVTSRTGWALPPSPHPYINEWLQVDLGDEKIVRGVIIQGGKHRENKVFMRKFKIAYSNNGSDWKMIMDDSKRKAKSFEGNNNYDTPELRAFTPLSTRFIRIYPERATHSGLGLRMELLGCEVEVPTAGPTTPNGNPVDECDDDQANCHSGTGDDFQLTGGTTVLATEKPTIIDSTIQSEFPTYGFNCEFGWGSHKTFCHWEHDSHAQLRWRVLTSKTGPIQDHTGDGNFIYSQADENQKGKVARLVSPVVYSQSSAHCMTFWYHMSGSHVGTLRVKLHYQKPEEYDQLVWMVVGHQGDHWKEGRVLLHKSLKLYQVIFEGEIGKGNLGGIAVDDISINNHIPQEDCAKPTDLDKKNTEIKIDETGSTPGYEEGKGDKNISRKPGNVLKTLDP
Protocol: Therefore, we next asked whether Sema-AP binds directly to neuropilin in a co-immunoprecipitation assay. For these experiments, an N-terminal myc-tagged neuropilin protein lacking the neuropilin transmembrane and intracellular domains (myc-neuropilin^ex) was used to assess whether the extracellular domain of neuropilin can directly interact with Sema III. Myc-neuropilin^ex was expressed in COS cells and the tissue culture medium was then incubated with either Sema-AP or SEAP alone. Upon precipitation of the myc-neuropilin^ex with a monoclonal antibody directed against the myc epitope, co-precipitation of Sema-AP was determined by the presence of AP activity in the immune complex (FIG. 1F). In contrast, no AP activity above background levels was detected in anti-myc immune complexes collected from samples in which myc-neuropilin was incubated with SEAP alone.
Co-precipitation of Sema-AP and the Secreted, Extracellular Domain of Neuropilin COS cell supernatant containing myc-neuropilin^ex, 293 EBNA cell supernatant containing SEAP, or 293 EBNA cell supernatant containing Sema-AP was filter-sterilized and concentrated. Samples containing equal amounts of control supernatants or supernatants containing myc-neuropilin^ex were mixed with samples containing either Sema-AP or SEAP (equal amounts of AP activity). These mixtures were incubated at room temperature for 2 hours. […]

[3] = target: Sema-AP binding sites / Sema III receptor(s) on NGF-dependent rat E14 DRG sensory neurons; experiment: whole cell binding, Scatchard analysis, dissociated rat E14 DRG neurons
[4] = target: T1, rat neuropilin (neuropilin-1), full …; experiment: whole cell binding, Scatchard analysis, COS cells transiently expressing neuropilin
Protocol: Because Coll-1 elicits biological effects at sub-nanomolar concentrations (Luo et al., 1993), we predicted that a bona fide Sema III receptor should bind to Sema III with high affinity. To determine the affinity of Sema-AP for neuropilin, neuropilin was transiently expressed in COS cells, and whole cell binding analyses were performed two days later (FIG. 3A). For comparison, the affinity of Sema-AP for its receptor(s) present on NGF-dependent sensory neurons prepared from dissociated E14 DRG was also determined (FIG. 3B). […] These binding affinities are similar to those recently described for netrins and their receptors (Keino-Masu et al., 1996; Leonardo et al., 1997) and Eph receptors and their ligands (Cheng and Flanagan, 1994; Monschau et al., 1997), and they are consistent with a role for neuropilin in Sema III-mediated growth cone collapse and in repulsive guidance of DRG neurons during neurodevelopment.
COS cells were transfected with 2 μg of pMT21-neuropilin, an expression vector encoding neuropilin, or either no DNA or the empty pMT21 expression vector using Lipofectamine (BRL), recovered in growth media, and then grown for 48 hours prior to binding analysis. Dissociated DRG neurons were cultured from E14 DRGs. […] Quantitiative cell surface binding was done essentially as described (Flanagan and Leder, 1990).

Binder | binding result [1] | binding result [2] | binding sites per cell (binding sites per cell) [3] | Kd [4] [nM]
secreted placental alkaline phosphatase (SEAP) (enzyme, UniProt P05187 23-511, looked up, Control for the AP part of Sema-AP) IIPVEEENPDFWNREAAEALGAAKKLQPAQTAAKNLIIFLGDGMGVSTVTAARILKGQKKDKLGPEIPLAMDRFPYVALSKTYNVDKHVPDSGATATAYLCGVKGNFQTIGLSAAARFNQCNTTRGNEVISVMNRAKKAGKSVGVVTTTRVQHASPAGTYAHTVNRNWYSDADVPASARQEGCQDIATQLISNMDIDVILGGGRKYMFRMGTPDPEYPDDYSQGGTRLDGKNLVQEWLAKRQGARYVWNRTELMQASLDPSVTHLMGLFEPGDMKYEIHRDSTLDPSLMEMTEAALRLLSRNPRGFFLFVEGGRIDHGHHESRAYRALTETIMFDDAIERAGQLTSEEDTLSLVTADHSHVFSFGGYPLRGSSIFGLAPGKARDRKAYTVLLYGNGPGYVLKDGARPDVTESESGSPEYRQQSAVPLDEETHAGEDVAVFARGPQAHLVHGVQEQTFIAHVMAFAACLEPYTACDLAPPAGTTDAAHPG | no binding | no binding |  | 
H-Sema III-alkaline phosphatase fusion protein (Sema-AP) (ligand, human, UniProt Q14563 21-771, looked up, Made in 293 EBNA cells from pCEP4 and used as supernatant; also called Sema III-AP; Sema III-secreted placental alkaline phosphatase fusion protein; not shown: secreted placental alkaline phosphatase of vector pAPtag-1 (Flanagan and Leder, 1990), C-terminal to Sema III; limits an) NYQNGKNNVPRLKLSYKEMLESNNVITFNGLANSSSYHTFLLDEERSRLYVGAKDHIFSFDLVNIKDFQKIVWPVSYTRRDECKWAGKDILKECANFIKVLKAYNQTHLYACGTGAFHPICTYIEIGHHPEDNIFKLENSHFENGRGKSPYDPKLLTASLLIDGELYSGTAADFMGRDFAIFRTLGHHHPIRTEQHDSRWLNDPKFISAHLISESDNPEDDKVYFFFRENAIDGEHSGKATHARIGQICKNDFGGHRSLVNKWTTFLKARLICSVPGPNGIDTHFDELQDVFLMNFKDPKNPVVYGVFTTSSNIFKGSAVCMYSMSDVRRVFLGPYAHRDGPNYQWVPYQGRVPYPRPGTCPSKTFGGFDSTKDLPDDVITFARSHPAMYNPVFPMNNRPIVIKTDVNYQFTQIVVDRVDAEDGQYDVMFIGTDVGTVLKVVSIPKETWYDLEEVLLEEMTVFREPTAISAMELSTKQQQLYIGSTAGVAQLPLHRCDIYGKACAECCLARDPYCAWDGSACSRYFPTAKRRTRRQDIRNGDPLTHCSDLHHDNHHGHSPEERIIYGVENSSTFLECSPKSQRALVYWQFQRRNEERKEEIRVDDHIIRTDQGLLLRSLQQKDSGNYLCHAVEHGFIQTLLKVTLEVIDTEHLEELLHKDDDGDGSKTKEMSNSMTPSQKVWYRDFMQLINHPNLNTMDEFCEQVWKRDRKQRRQRPGHTPGNSNKWKHLQENKKGRNRRTHEFERAPRSV |  |  | 20000 | ~1.5
